Data on one molecule can be found in publication PMC7611331 (Nature microbiology, 2019).

This test deals with T1, native FtsZ (Streptococcus pneumoniae R800, UniProt A0A0H2ZNE0 1-419).
T1 sequence (looked up): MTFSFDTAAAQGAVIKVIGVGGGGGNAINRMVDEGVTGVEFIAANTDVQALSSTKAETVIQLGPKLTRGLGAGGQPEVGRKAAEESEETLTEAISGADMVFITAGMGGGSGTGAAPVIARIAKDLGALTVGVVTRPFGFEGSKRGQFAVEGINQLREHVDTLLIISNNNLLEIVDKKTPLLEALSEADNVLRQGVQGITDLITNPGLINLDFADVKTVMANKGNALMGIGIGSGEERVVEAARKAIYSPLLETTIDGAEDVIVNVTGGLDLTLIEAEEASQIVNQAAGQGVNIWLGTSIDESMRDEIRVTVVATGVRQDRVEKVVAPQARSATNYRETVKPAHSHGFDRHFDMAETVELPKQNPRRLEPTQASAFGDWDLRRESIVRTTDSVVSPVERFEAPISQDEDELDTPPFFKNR
Description: MST.

B1: RocS-ΔAH-6His (domain or fragment, Streptococcus pneumoniae R800, UniProt Q8DQ15 1-150, looked up)
chain: MSIEMTVSEIAEVLGLSRQAINNRVKELPEEDTDKNDKGVTVVTRSGLIKLEEIYKKTIFEDEPVSEDVKQRELMEILVDEKNAEILRLYEQLKAKDRQLSEKDEQMRIKDRQIAEKDKQLDQQQQLTLQAMKDQENLKLELDQAKEEVQ
modifications: labeled with the red dye NT-647
Turning to B1, the binding result is on record as “binds”.
